Test results from patent publication US20190049459A1 (TOKYO INSTITUTE OF TECHNOLOGY, published 2019).

Experiments:
[1] = molecular target: T1, ANT2-HA (human, UniProt P05141 1-298); assay: co-expression of ANT2-HA and FLAG-tagged uORF44 in HEK 293 T cells, immunoprecipitation by one tag, western blot by the other tag
T1 construct: Co-expressed with FLAG-tagged uORF44 in HEK 293 T cells; not shown: HA tag fused to the subtype
T1 sequence (looked up): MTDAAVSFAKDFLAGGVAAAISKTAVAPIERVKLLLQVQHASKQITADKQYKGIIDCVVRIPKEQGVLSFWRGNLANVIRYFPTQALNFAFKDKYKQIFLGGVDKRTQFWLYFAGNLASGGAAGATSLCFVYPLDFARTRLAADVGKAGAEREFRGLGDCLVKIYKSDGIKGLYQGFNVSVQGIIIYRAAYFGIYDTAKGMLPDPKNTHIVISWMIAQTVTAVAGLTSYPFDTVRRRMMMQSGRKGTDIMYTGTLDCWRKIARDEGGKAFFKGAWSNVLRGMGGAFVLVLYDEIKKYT
Experimental: The expression vector was transfected into HEK 293 T cells cultured in a 10 cm culture dish using Opt-MEM (Life Technologies) and FuGENE-HD (Promega). After 48 hours of transfection, the cells were washed with PBS and dissolved using 1 mL of lysis buffer (20 m Tris-HCl pH 7.5, 150 mM NaCl, 0.5% NP 40, 1×Complete EDTA free (Roche) 10 mM Glycerol 2-phosphate, 1 mM NaVO4) and allowed to stand on ice for 20 minutes. Thereafter, the cells were centrifuged at 4° C., 21,130×g for 30 minutes, and the supernatant was used for immunoprecipitation. 50 μL of anti-[…] antibody beads (Wako, 016-22784) or 50 μL of Monoclonal Anti-HA-Agarose (Sigma, A 2095) was used in the immunoprecipitation. The supernatant was mixed with antibody beads lysate, and slowly mixed at 4° C. for 1 hour. After completion of the antigen-antibody reaction, it was washed 3 times with 1 mL of a lysis buffer, and then the protein was eluted with 50 μL 1×SDS sample buffer. The eluted sample was subjected to electrophoresis by SDS-PAGE followed by western blotting or SYPRO Ruby staining. The western blotting was performed as described in paragraph “(5) Western blotting.” The SYPRO Ruby staining was performed using SYPRO Ruby protein gel stain (Life Technologies, S 12000), in accordance with a product manual. […]

[2] = molecular target: T2, BIP (human, UniProt P11021 19-654); assay: anti-FLAG immunoprecipitation from HEK 293 T lysate, SDS-PAGE; band identified by mass spectrometry (Table 1)
T2 construct: Endogenous protein co-precipitated from HEK 293 T lysate; also called GRP78
T2 sequence (P11021 19-654 limits assumed): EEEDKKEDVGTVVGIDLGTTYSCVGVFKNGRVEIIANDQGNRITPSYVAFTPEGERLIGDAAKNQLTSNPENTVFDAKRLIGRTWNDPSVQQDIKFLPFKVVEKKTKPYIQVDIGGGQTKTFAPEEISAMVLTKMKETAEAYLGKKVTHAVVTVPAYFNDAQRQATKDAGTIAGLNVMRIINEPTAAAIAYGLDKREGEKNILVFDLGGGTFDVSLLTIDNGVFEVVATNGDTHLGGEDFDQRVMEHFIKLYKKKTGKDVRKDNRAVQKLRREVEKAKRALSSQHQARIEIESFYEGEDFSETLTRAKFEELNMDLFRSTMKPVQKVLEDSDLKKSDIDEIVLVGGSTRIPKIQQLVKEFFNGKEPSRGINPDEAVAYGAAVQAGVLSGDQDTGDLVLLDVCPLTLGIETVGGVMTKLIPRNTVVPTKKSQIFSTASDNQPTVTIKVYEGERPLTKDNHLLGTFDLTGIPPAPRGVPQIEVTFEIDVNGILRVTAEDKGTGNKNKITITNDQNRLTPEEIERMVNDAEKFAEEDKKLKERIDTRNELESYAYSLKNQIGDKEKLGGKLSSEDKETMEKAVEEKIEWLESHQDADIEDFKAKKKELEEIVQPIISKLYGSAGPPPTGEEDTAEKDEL

[3] = molecular target: T3, DNA-PKcs (human, UniProt P78527 1-4128); assay: as above
T3 construct: Endogenous protein co-precipitated from HEK 293 T lysate and identified by mass spectrometry; also called DNK-PKcs; PRKDC
T3 sequence (P78527 whole entry): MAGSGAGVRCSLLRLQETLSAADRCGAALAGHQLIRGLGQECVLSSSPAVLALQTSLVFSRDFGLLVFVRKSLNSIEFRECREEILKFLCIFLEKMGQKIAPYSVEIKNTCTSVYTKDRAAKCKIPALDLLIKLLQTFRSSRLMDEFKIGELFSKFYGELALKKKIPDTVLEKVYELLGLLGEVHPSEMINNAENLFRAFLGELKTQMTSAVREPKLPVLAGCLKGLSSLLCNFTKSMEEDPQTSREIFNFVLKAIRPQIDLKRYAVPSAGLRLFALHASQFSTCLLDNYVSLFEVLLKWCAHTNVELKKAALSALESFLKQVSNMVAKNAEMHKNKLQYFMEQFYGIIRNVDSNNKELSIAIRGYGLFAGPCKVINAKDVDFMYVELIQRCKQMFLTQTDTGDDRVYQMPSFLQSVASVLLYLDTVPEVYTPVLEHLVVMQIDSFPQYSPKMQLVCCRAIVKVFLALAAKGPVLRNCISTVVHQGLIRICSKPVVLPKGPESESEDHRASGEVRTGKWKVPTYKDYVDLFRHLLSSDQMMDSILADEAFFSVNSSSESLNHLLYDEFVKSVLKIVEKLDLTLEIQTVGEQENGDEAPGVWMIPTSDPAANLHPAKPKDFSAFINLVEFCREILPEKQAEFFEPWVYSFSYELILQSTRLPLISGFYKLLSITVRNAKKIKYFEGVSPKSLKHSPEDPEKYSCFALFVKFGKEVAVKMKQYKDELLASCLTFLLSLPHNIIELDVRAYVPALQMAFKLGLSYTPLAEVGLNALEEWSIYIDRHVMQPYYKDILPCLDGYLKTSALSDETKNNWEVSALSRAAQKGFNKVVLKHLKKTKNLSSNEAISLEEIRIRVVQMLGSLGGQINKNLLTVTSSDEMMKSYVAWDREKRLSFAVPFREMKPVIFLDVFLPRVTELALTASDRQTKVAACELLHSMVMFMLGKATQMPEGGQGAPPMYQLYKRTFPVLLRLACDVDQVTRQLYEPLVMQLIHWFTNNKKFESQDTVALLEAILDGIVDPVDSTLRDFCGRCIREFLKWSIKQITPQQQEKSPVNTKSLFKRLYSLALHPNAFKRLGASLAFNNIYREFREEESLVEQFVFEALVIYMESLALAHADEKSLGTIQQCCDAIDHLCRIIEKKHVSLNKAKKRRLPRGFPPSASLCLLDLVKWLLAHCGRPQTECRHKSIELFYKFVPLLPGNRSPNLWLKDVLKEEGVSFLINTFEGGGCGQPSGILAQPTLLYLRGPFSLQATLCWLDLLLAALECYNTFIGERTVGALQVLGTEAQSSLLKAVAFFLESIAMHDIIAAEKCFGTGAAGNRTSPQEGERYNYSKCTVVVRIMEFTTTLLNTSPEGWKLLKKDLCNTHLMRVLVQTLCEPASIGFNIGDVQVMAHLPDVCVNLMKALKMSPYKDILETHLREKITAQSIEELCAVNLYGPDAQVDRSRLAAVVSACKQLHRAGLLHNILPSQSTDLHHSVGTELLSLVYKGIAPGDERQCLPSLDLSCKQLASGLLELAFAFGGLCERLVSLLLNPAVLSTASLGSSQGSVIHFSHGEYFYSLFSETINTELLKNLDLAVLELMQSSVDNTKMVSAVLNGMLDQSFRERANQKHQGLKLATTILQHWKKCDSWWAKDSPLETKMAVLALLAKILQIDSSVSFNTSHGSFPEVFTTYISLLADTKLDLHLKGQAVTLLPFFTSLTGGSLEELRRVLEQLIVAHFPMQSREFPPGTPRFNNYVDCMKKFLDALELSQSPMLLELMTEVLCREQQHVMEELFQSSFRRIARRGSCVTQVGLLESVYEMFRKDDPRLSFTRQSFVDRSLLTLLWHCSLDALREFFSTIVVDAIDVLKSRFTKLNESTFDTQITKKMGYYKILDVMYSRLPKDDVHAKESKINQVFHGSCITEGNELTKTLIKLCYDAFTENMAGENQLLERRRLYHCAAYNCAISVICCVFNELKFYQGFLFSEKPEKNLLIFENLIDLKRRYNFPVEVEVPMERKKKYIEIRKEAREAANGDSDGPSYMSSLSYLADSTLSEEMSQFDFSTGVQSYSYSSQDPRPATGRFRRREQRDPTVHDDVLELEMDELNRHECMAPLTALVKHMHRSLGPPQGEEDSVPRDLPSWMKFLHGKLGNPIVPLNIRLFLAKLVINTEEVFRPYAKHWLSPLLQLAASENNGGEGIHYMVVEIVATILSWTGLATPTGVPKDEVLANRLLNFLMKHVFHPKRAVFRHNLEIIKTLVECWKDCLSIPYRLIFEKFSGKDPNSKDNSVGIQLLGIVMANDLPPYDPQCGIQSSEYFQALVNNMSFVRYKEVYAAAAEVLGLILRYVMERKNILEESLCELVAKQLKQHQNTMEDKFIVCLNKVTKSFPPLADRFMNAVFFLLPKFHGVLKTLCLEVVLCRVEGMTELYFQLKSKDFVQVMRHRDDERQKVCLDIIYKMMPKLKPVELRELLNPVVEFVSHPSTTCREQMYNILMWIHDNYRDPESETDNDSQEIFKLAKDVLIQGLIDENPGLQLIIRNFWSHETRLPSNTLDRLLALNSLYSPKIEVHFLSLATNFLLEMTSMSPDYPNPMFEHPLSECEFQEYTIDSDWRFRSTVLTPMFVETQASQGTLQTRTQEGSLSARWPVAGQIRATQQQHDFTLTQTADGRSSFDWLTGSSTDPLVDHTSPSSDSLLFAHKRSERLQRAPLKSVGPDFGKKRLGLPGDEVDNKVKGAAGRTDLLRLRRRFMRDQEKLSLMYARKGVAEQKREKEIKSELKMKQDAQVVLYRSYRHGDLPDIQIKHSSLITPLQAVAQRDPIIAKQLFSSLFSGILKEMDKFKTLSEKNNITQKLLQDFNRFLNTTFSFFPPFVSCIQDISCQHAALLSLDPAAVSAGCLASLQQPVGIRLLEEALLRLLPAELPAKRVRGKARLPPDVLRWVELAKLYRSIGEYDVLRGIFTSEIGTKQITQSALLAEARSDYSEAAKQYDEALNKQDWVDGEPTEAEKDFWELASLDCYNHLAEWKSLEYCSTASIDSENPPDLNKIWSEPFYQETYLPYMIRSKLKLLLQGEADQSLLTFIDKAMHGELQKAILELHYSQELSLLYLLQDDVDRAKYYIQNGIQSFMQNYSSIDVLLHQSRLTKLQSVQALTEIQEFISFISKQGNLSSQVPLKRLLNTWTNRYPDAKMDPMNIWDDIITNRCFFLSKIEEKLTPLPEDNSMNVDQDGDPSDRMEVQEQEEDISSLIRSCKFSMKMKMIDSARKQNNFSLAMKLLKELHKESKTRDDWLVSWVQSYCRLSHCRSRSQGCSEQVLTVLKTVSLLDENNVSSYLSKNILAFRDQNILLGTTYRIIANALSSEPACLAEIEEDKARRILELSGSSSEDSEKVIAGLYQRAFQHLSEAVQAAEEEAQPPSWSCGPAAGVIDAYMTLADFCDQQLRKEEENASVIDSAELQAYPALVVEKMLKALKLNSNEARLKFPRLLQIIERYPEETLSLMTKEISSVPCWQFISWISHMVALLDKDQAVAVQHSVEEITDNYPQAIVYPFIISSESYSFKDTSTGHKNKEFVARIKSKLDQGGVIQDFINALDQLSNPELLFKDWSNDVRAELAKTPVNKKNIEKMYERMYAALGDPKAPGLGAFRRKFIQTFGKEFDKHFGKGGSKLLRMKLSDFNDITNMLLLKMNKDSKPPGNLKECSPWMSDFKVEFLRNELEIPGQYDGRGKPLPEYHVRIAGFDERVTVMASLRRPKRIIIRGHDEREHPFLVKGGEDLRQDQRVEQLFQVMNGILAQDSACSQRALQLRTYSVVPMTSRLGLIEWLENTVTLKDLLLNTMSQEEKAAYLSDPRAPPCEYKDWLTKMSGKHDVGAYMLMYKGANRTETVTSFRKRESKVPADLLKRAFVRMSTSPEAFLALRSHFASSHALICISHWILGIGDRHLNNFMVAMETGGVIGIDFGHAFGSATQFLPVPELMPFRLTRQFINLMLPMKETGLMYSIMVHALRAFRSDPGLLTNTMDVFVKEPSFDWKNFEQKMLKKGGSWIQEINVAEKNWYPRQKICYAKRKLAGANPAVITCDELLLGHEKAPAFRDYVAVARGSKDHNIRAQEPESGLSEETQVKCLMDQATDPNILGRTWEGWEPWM

Measured: binding result

B1: FLAG-tagged uORF44p (protein derived from uORF44, an upstream ORF in the mRNA of ARHGEF9) (other, not shown: small tags and cut ends)
chain: MDSLTEQRLTSPNLPAPHLEHYSVLHCTMTLDVQTVVVFAVIVVLLLVNVILMFFLGTR
notes: Expressed from a pcDNA3 FLAG vector in HEK 293 T cells; also called uORF44 protein; mental activity-related protein
binds: all assays above
